From paper PMC7505656

What was measured:
[1] = target: E-cadherin extracellular domain L175D cis-binding mutant, hexahistidine-tagged (human) (UniProt P12830); experiment: single-molecule tracking (TIRFM), cluster size from trajectory friction factors; AF555 labelled E-cad on DOPC supported lipid bilayers with 5% DGS-NTA(Ni); high, intermediate and low surface coverage (~39,000, ~1,000, ~0.6 E-cad/µm^2); raw friction factor data adapted from Thompson et al., 2019 and analysed here
[2] = target: E-cadherin extracellular domain L175D cis-binding mutant, hexahistidine-tagged (human) (UniProt P12830); experiment: single-molecule tracking cluster size distributions + kinetic Monte Carlo simulation; effective rate constants worked out from kMC on/off rates that were optimised so that simulated cluster size distributions match the experimental ones (1,250 E-cad/µm^2 in the simulation)
[3] = target: wild-type E-cadherin extracellular domain, hexahistidine-tagged (human) (UniProt P12830); experiment: FRET or BRET; single-molecule intermolecular FRET by TIRF microscopy; high-coverage wild-type (~1,400 E-cad/µm^2; 5 × 10^-7 M total in solution); AF555 donor, AF647 acceptor and unlabelled E-cad tethered by His6 to a DOPC/DGS-NTA(Ni) 19:1 supported lipid bilayer; 25 mM HEPES, 100 mM NaCl, 10 mM KCl, 2 mM CaCl2, 0.05 mM NiSO4, pH 8; average dissociation rate constant from a three-state Markov model
[4] = target: wild-type E-cadherin extracellular domain, hexahistidine-tagged (human) (UniProt P12830); experiment: FRET or BRET; single-molecule intermolecular FRET by TIRF microscopy; intermediate-coverage wild-type (~1,000 E-cad/µm^2; 3 × 10^-7 M total in solution); AF555 donor, AF647 acceptor and unlabelled E-cad tethered by His6 to a DOPC/DGS-NTA(Ni) supported lipid bilayer; same buffer, pH 8; three-state Markov model
[5] = target: wild-type E-cadherin extracellular domain, hexahistidine-tagged (human) (UniProt P12830); experiment: single-molecule tracking (TIRFM), cluster size from trajectory friction factors; AF555 labelled E-cad on DOPC supported lipid bilayers with 5% DGS-NTA(Ni); high, intermediate and low surface coverage (~39,000, ~1,000, ~0.6 E-cad/µm^2); raw friction factor data adapted from Thompson et al., 2019 and analysed here
[6] = target: wild-type E-cadherin extracellular domain, hexahistidine-tagged (human) (UniProt P12830); experiment: single-molecule tracking cluster size distributions + kinetic Monte Carlo simulation; effective rate constants worked out from kMC on/off rates that were optimised so that simulated cluster size distributions match the experimental ones (1,250 E-cad/µm^2 in the simulation)
[7] = target: E-cadherin extracellular domain L175D cis-binding mutant, hexahistidine-tagged (human) (UniProt P12830); experiment: FRET or BRET; single-molecule intermolecular FRET by TIRF microscopy; high-coverage mutant (~1,300 E-cad/µm^2; 5 × 10^-7 M total in solution); AF555 labelled wild-type donor with AF647 labelled mutant acceptor and unlabelled mutant, tethered by His6 to a DOPC/DGS-NTA(Ni) supported lipid bilayer; same buffer, pH 8; three-state Markov model

characteristic cluster size [1]	cluster size (E-cad per cluster) [1]	effective koff, nonspecific cis-interaction [2]	effective kon, nonspecific cis-interaction [2]	koff [3]	koff [4]	characteristic cluster size [5]	cluster size (E-cad per cluster) [5]	binding affinity, specific cis-interaction [6]	effective koff, specific cis-interaction [6]	effective kon, specific cis-interaction [6]	koff [7]	Substance
29 E-cad	40 E-cad	1000 s⁻¹	1.1e+06 M⁻¹ s⁻¹									E-cadherin extracellular domain L175D cis-binding mutant, hexahistidine-tagged (from UniProt P12830 155-709) (domain or fragment)
				1.04 s⁻¹	3.17 s⁻¹	33 E-cad	40 to 160 E-cad	10 µM	100 s⁻¹	2.7e+06 M⁻¹ s⁻¹	1.4 s⁻¹	wild-type E-cadherin extracellular domain, hexahistidine-tagged (from UniProt P12830 155-709) (domain or fragment)
